Experimental data from the supplement of paper PMC7125110.
± gives the standard error. For some of these results: Variants at the floor of the assay were thinned out.

B1: glmS ribozyme (parent)
chain: AUAAAAGCGCCAGAACUACAGAAAUGUAGUUGACGAGGAGGAGGUUUAUCGAAUUUUCGGCGGAUGCCUCCAAA

Experiments:
Conditions in all cases: with glucosamine-6-phosphate
[1] = variants of: B1; assay: kcat; higher = faster cleavage; RNA array
Summary of the method: (§1)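 A hybridised Cy3 probe tracked barcoded ribozyme variants, transcribed in situ by E. coli RNA polymerase on sequenced MiSeq chips, at 37 °C. The variants received 40 μM to 10 mM glucosamine-6-phosphate in HEPES/KCl/Mg(OAc)2 buffer. kobs came from decay fits and kcat and KM from weighted Michaelis–Menten fits.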

[2] = variants of: B1; assay: KM; higher = weaker cofactor use; RNA array
Summary of the method: as §1

[3] = variants of: B1; assay: self-cleavage kobs at 40 uM GlcN6P; higher = faster cleavage; RNA array
Summary of the method: as §1

[4] = variants of: B1; assay: self-cleavage kobs at 160 uM GlcN6P; higher = faster cleavage; RNA array
Summary of the method: as §1

[5] = variants of: B1; assay: self-cleavage kobs at 640 uM GlcN6P; higher = faster cleavage; RNA array
Summary of the method: as §1

[6] = variants of: B1; assay: self-cleavage kobs at 2500 uM GlcN6P; higher = faster cleavage; RNA array
Summary of the method: as §1

[7] = variants of: B1; assay: self-cleavage kobs at 10000 uM GlcN6P; higher = faster cleavage; RNA array
Summary of the method: as §1

| Variant | kcat [1] [s⁻¹] | KM [2] [µM] | self-cleavage kobs at 40 uM GlcN6P [3] [s⁻¹] | self-cleavage kobs at 160 uM GlcN6P [4] [s⁻¹] | self-cleavage kobs at 640 uM GlcN6P [5] [s⁻¹] | self-cleavage kobs at 2500 uM GlcN6P [6] [s⁻¹] | self-cleavage kobs at 10000 uM GlcN6P [7] [s⁻¹] |
| --- | --- | --- | --- | --- | --- | --- | --- |
| C16U U46G | 0.00589 ± 0.00074 | 1810 ± 320 | 0.00014 ± 1.3e-05 | 0.000489 ± 8.8e-05 | 0.00131 ± 0.00016 | 0.00323 ± 0.0005 | 0.00531 ± 0.00055 |
| C16G G40A | 0.000334 ± 0.00011 | – | – | – | 0.000114 ± 2.6e-05 | 0.000473 ± 0.00011 | 0.00027 ± 5.7e-05 |
| A15G G32U | 0.00117 ± 2.6e-05 | 2990 ± 100 | – | 6.02e-05 ± 1.1e-05 | 0.000208 ± 2.6e-05 | 0.000525 ± 5.2e-05 | 0.000917 ± 0.00013 |
| C16G U30A | 0.000474 ± 6e-05 | 1780 ± 370 | – | 3.9e-05 ± 1.2e-05 | 0.00012 ± 2.3e-05 | 0.000313 ± 6.1e-05 | 0.000372 ± 9.2e-05 |
| C16G U49G | 6.89e-05 ± 1.1e-05 | – | – | – | – | 5.02e-05 ± 1.3e-05 | 5.76e-05 ± 1.1e-05 |
| A15U A39U | 0.00466 ± 0.00041 | 2280 ± 280 | 8.33e-05 ± 9.7e-06 | 0.000251 ± 5.5e-05 | 0.0011 ± 0.00013 | 0.00233 ± 0.00043 | 0.0038 ± 0.0004 |
| A15U A39G | 0.00892 ± 0.0027 | 1830 ± 730 | 0.000203 ± 3.1e-05 | 0.000706 ± 0.00028 | 0.0023 ± 0.00069 | – | 0.00943 ± 0.0017 |
| G26U A48C | 0.000587 ± 6e-05 | 4480 ± 710 | – | – | 7.06e-05 ± 1.4e-05 | 0.000222 ± 3.5e-05 | 0.000394 ± 7.4e-05 |
| C16G C50A U57C C68U C71G | 2.93e-05 ± 8.8e-06 | – | – | – | – | – | – |
| C16G G66U | 0.000189 ± 5.3e-06 | 2380 ± 200 | – | – | 3.85e-05 ± 1.1e-05 | 9.99e-05 ± 1.6e-05 | 0.000152 ± 1.3e-05 |
| A15U G51C | < 1e-05 | – | < 1e-05 | – | < 1e-05 | – | – |
| C16A C67U | 0.000302 ± 4.6e-05 | 782 ± 280 | – | 6.4e-05 ± 1.4e-05 | 0.000122 ± 1.3e-05 | 0.000286 ± 3.2e-05 | 0.000261 ± 3.1e-05 |
| C16G U65G | 0.00228 ± 0.0011 | – | – | 6.11e-05 ± 1.6e-05 | 0.000149 ± 6.2e-05 | 0.000455 ± 0.00013 | 0.00143 ± 0.00036 |
| C16A G66U | 0.000122 ± 3.2e-05 | 8450 ± 4000 | – | – | – | 2.61e-05 ± 1.2e-05 | 6.63e-05 ± 1.5e-05 |
| C16A G59A | 1.02e-05 ± 3.6e-06 | – | – | – | – | – | – |
| C16U G51A C61G | 1.5e-05 ± 3.9e-06 | – | – | – | – | – | – |
| A15U C16G C50G A52G | 1.88e-05 ± 5.2e-06 | – | – | – | – | – | – |
| C16G G32A C68U | 0.000119 ± 1.4e-05 | – | – | – | 0.000129 ± 3.9e-05 | 9.95e-05 ± 3.8e-05 | 0.000115 ± 1.8e-05 |

| Variant | kcat [1] [s⁻¹] | KM [2] [µM] | self-cleavage kobs at 40 uM GlcN6P [3] [s⁻¹] | self-cleavage kobs at 160 uM GlcN6P [4] [s⁻¹] | self-cleavage kobs at 640 uM GlcN6P [5] [s⁻¹] | self-cleavage kobs at 2500 uM GlcN6P [6] [s⁻¹] | self-cleavage kobs at 10000 uM GlcN6P [7] [s⁻¹] |
| --- | --- | --- | --- | --- | --- | --- | --- |
| A15U G44A | 3.69e-05 ± 5.2e-07 | 2790 ± 140 | – | – | – | – | 2.88e-05 ± 1.1e-05 |
| C16U G44A | 0.000353 ± 9.4e-05 | – | – | – | 7.56e-05 ± 1.5e-05 | 0.000392 ± 7.1e-05 | 0.000277 ± 3.6e-05 |
| C16U G44C | 6.71e-05 ± 2.3e-05 | – | – | – | 6.27e-05 ± 1.7e-05 | 2.88e-05 ± 1.4e-05 | 8.38e-05 ± 1.3e-05 |
| A23C C70A | 0.000172 ± 3.1e-05 | 139 ± 68 | 3.76e-05 ± 1.2e-05 | – | – | 0.000302 ± 0.0001 | 0.000156 ± 3.2e-05 |
| C16G G59A C71G | 1.74e-05 ± 4.8e-06 | – | – | – | – | – | – |
| A15U A33G | < 1e-05 | – | – | – | – | – | < 1e-05 |
| A15U A33U | 5.77e-05 ± 6.8e-06 | – | – | – | – | 5.26e-05 ± 1e-05 | 5.13e-05 ± 7.3e-06 |
| A15G U47G | 0.00418 ± 0.0015 | – | 0.000326 ± 5.4e-05 | 0.000812 ± 0.00016 | 0.00171 ± 0.00031 | 0.00298 ± 0.00072 | 0.00738 ± 0.0014 |
| C16G U30A U65G | 0.000143 ± 7.4e-06 | 4140 ± 530 | – | – | – | 5.44e-05 ± 2e-05 | 0.000101 ± 2.1e-05 |
| A15U C68U | 0.000466 ± 3e-05 | 1610 ± 210 | 1.92e-05 ± 9.6e-06 | 4.94e-05 ± 7.4e-06 | 0.000127 ± 9.9e-06 | 0.000277 ± 2.2e-05 | 0.000409 ± 2.7e-05 |
| A15U C68A | 2.71e-05 ± 1e-05 | – | – | – | – | 3.7e-05 ± 1.7e-05 | – |
| A15U C68G | 4.37e-05 ± 1e-05 | – | – | – | 2.81e-05 ± 1.4e-05 | 4.48e-05 ± 1e-05 | – |
| A15G U47G U55A | 0.0098 ± 0.003 | 1860 ± 850 | 0.000187 ± 5.9e-05 | – | 0.00364 ± 0.0011 | 0.00474 ± 0.0016 | 0.00887 ± 0.003 |
| C16G U57A | 5.68e-05 ± 5.7e-06 | 1570 ± 780 | – | – | – | 3.99e-05 ± 1.7e-05 | 4.85e-05 ± 8.9e-06 |
| A15G U45G | 0.00832 ± 0.00089 | 1730 ± 260 | 0.000211 ± 3.4e-05 | 0.000643 ± 9.8e-05 | 0.0024 ± 0.00037 | 0.0044 ± 0.00084 | 0.00741 ± 0.001 |
| C16A A48U | < 1e-05 | 163 ± 44 | < 1e-05 | < 1e-05 | – | – | – |
| C16U G43U | 4.2e-05 ± 1.9e-07 | 1250 ± 27 | – | – | – | 2.81e-05 ± 1.3e-05 | 3.73e-05 ± 1e-05 |
| C16U G43A | 8.72e-05 ± 3e-05 | – | < 1e-05 | – | – | 2.82e-05 ± 1e-05 | 6.17e-05 ± 1e-05 |
